The numbers were not newly measured in article PMC4174909, which cites them from elsewhere.

As usually defined, the pKa is the negative logarithm of the acid dissociation constant.

This series has as its target His37 (UniProt position 37, IIGILHLILWI).

For the substance “Matrix protein 2 (M2 proton channel) (Influenza A virus (strain not stated for the quoted pKa values; the experiments of this article use A/Udorn/72))”, the pKa is 8.2 and about 6 and about 4 to 5.
